Results from patent US20240425612A1.

Assays:
[1] = target: hFcγRIIIa-158V-streptavidin-His (human) (UniProt P08637); assay: BLI
[2] = target: hFcγRIIIa-158F-streptavidin-His (human) (UniProt P08637); assay: BLI
Sequence of hFcγRIIIa-158F-streptavidin-His (human) (P08637 17-208): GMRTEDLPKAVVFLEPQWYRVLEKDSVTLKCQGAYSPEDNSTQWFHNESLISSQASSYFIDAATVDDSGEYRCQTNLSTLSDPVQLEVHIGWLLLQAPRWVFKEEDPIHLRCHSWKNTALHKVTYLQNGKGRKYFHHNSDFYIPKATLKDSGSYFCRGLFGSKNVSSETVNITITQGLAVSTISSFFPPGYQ

Sequence of hFcγRIIIa-158V-streptavidin-His (human) (P08637 17-208 F176V): as the sequence (P08637 17-208) above, with F160V counted along it

- Kd [1]: 46.5 nM
- Kd [2]: 67.3 nM
Substance: Trastuzumab-DE (S239D/I332E) from Xencor
